Results reported in US12351616B2, “Peptides and combination of peptides for use in immunotherapy against esophageal cancer and other cancers” (Immatics Biotechnologies GmbH, priority 2015, dated 2025).

Biological target: HLA-A*02:01 (Homo sapiens, UniProt P04439, D140Y/D185E/D98H/E176V/E277Q/G131W/G231S/I119V/I121R/I166T/I218V/L300P/L318F/N151K/N90K/P208A/P217A/Q86G/Q94H/R138H/R169H/T345S)
Assay: MHC binding assay: UV-ligand exchange with β2m ELISA
Details: peptide exchange yield, binding to HLA-A*02:01
Source text: Candidate peptides for T cell based therapies according to the present invention were further tested for their MHC binding capacity (affinity). The individual peptide-MHC complexes were produced by UV-ligand exchange, where a UV-sensitive peptide is cleaved upon UV-irradiation, and exchanged with the peptide of interest as analyzed. Only peptide candidates that can effectively bind and stabilize the peptide-receptive MHC molecules prevent dissociation of the MHC complexes. To determine the yield of the exchange reaction, an ELISA was performed based on the detection of the light chain (β2m) of stabilized MHC complexes. The assay was performed as generally described in Rodenko et al. (Rodenko et al., 2006).
96 well MAXISorp plates (NUNC) were coated over night with 2 ug/ml streptavidin in PBS at room temperature, washed 4× and blocked for 1 h at 37° C. in 2% BSA containing blocking buffer. Refolded HLA-A*02:01/MLA-001 monomers served as standards, covering the range of 15-500 ng/ml. Peptide-MHC monomers of the UV-exchange reaction were diluted 100 fold in blocking buffer. Samples were incubated for 1 h at 37° C., washed four times, incubated with 2 ug/ml HRP conjugated anti-β2m for 1 h at 37° C., washed again and detected with TMB solution that is stopped with […]. Absorption was measured at 450 nm. Candidate peptides that show a high exchange yield (preferably higher than 50%, most preferred higher than 75%) are generally preferred for a generation and production of antibodies or fragments thereof, and/or T cell receptors or fragments thereof, as they show sufficient avidity to the MHC molecules and prevent dissociation of the MHC complexes.

Row | Peptide exchange | Substance
1 | ++++ (≥75% = ++++) | 14 (RLPNAGTQV; listed as Homo sapiens) [compound 14]
2 | ++ (≥20% = ++) | 72 (FLPPAQVTV; listed as Homo sapiens) [compound 72]
3 | +++ (≥50 = +++) | 70 (FVLDTSESV; listed as Homo sapiens) [compound 70]
4 | +++ (≥50 = +++) | 93 (VLINTSVTL; listed as Homo sapiens) [compound 93]
5 | +++ (≥50 = +++) | 18 (FLLDQVQLGL; listed as Homo sapiens) [compound 18]
6 | ++++ (≥75% = ++++) | 13 (SLSPVILGV; listed as Homo sapiens) [compound 13]
7 | +++ (≥50 = +++) | 38 (IAAIRGFLV; listed as Homo sapiens) [compound 38]
8 | + (≥10% = +) | 42 (TQTAVITRI; listed as Homo sapiens) [compound 42]
9 | +++ (≥50 = +++) | 46 (YTAQIGADIAL; listed as Homo sapiens) [compound 46]
10 | ++ (≥20% = ++) | 53 (VVVTGLTLV; listed as Homo sapiens) [compound 53]
11 | ++ (≥20% = ++) | 80 (ALQEALENA; listed as Homo sapiens) [compound 80]
12 | ++ (≥20% = ++) | 56 (ALVEVTEHV; listed as Homo sapiens) [compound 56]
13 | +++ (≥50 = +++) | 82 (HLLGHLEQA; listed as Homo sapiens) [compound 82]
14 | ++ (≥20% = ++) | 92 (SILRHVAEV; listed as Homo sapiens) [compound 92]
15 | +++ (≥50 = +++) | 3 (TASAITPSV; listed as Homo sapiens) [compound 3]
16 | +++ (≥50 = +++) | 10 (SLDENSDQQV; listed as Homo sapiens) [compound 10]
17 | +++ (≥50 = +++) | 66 (LLDEKVQSV; listed as Homo sapiens) [compound 66]

Row | Peptide exchange | Substance
18 | ++++ (≥75% = ++++) | 64 (GLTDVIRDV; listed as Homo sapiens) [compound 64]
19 | ++ (≥20% = ++) | 67 (SMNGGVFAV; listed as Homo sapiens) [compound 67]
20 | +++ (≥50 = +++) | 34 (SLVSEQLEPA; listed as Homo sapiens) [compound 34]
21 | ++ (≥20% = ++) | 79 (GQDVGRYQV; listed as Homo sapiens) [compound 79]
22 | ++ (≥20% = ++) | 28 (SLDGFTIQV; listed as Homo sapiens) [compound 28]
23 | +++ (≥50 = +++) | 49 (GLMKDIVGA; listed as Homo sapiens) [compound 49]
24 | +++ (≥50 = +++) | 16 (VLAEGGEGV; listed as Homo sapiens) [compound 16]
25 | ++ (≥20% = ++) | 41 (GLESEELEPEEL; listed as Homo sapiens) [compound 41]
26 | ++ (≥20% = ++) | 36 (FLLRFSQDNA; listed as Homo sapiens) [compound 36]
27 | +++ (≥50 = +++) | 61 (TQTTHELTI; listed as Homo sapiens) [compound 61]
28 | +++ (≥50 = +++) | 73 (KITEAIQYV; listed as Homo sapiens) [compound 73]
29 | +++ (≥50 = +++) | 83 (ALADGVVSQA; listed as Homo sapiens) [compound 83]
30 | +++ (≥50 = +++) | 9 (HLIAEIHTA; listed as Homo sapiens) [compound 9]
31 | +++ (≥50 = +++) | 63 (LAYTLGVKQL; listed as Homo sapiens) [compound 63]
32 | +++ (≥50 = +++) | 35 (LLRFSQDNA; listed as Homo sapiens) [compound 35]
33 | +++ (≥50 = +++) | 33 (GLDVTSLRPFDL; listed as Homo sapiens) [compound 33]
34 | +++ (≥50 = +++) | 8 (ALLDGGSEAYWRV; listed as Homo sapiens) [compound 8]
